Test results taken from patent publication US20230080534A1, “SEMG2 ANTIBODY AND USE THEREOF” (SHANGHAI BIOTROY BIOTECHNIQUE CO., LTD., priority 2020, published 2023).
Entries after “also recorded” stand apart in the source; their conditions may differ.

B1: MM05: mouse monoclonal antibody against SEMG2(497-509), mIgG1 kappa, VH SEQ ID NO:36, VL SEQ ID NO:43 (antibody, V domains shown)
VH: QVQLQQPGAELVRPGASVKLSCEASGYTFTSYWMNWVKQRPGQGLEWIGMIDPSDSETHYNQMFKDKATLTVDKSSSTAYMQLSSLTSEDSAVYYCARYLGGKEGSFDYWGQGTTLTVSS
VL: DIVMSQSPSSLAVSAGEKVTMSCKSSQSLLNSRTRKNYLAWYQQKPGQSPKLLIYWASTRESGVPDRFTGSGSGTDFTLTISSVQAEDLAVYYCKQSYSLPWTFGGGTKLEIKRA
modifications: UNSURE (1)..(120) VH; UNSURE (1)..(115) VL
B2: MM02: mouse monoclonal antibody against SEMG2(497-509), mIgG2b kappa, VH SEQ ID NO:35, VL SEQ ID NO:42 (antibody, V domains shown)
VH: QIQLVQSGPEVKKPGETVRISCKASGYTLTTAGIQWVQKMPGKGLKWIGWINTHSGVPEYAEDFKGRFAFFLETSASTAYLQISNLKNEDTATYFCARLGLLGYWGQGTTLTVSS
VL: DILLTQSPAILSVSPGERVSFSCRASQSIGTTIHWYQQRTNGSPRLLIKYASESISGIPSRFSGSGSGTDFTLSINSVESEDIADYYCQQSNSWPWTFGGGTKLEIKRA
modifications: UNSURE (1)..(115) VH; UNSURE (1)..(109) VL

How the values were obtained:
SEMG2(497-509) fragment = target: T1, SEMG2(497-509) fragment (Homo sapiens, UniProt Q02383); test: ELISA binding of antibodies to SEMG2(497-509) epitope
T1 construct: SEMG2(497-509) fragment and SEMG2(563-574) fragment were immobilized on the ELISA plate; made in house; host or cells: chemical synthesis
Method: Specifically, SEMG2 full-length protein (1-582), SEMG2(354-403) fragment, SEMG2(442-453) fragment, SEMG2(497-509) fragment and SEMG2(563-574) fragment were immobilized on the ELISA plate, and the same concentration of antibodies (MM02, MM05, MM07, MM08, MM13, MM14, HPA042767 and HPA042835) were added. Anti-mouse or anti-rabbit secondary antibodies were then used to detect the corresponding bound antibodies. MM02, MM05, MM07, MM08, MM13, and MM14 all bound to SEMG2(497509) epitope, HPA042767 bound to SEMG2 (354-403) epitope, and HPA042835 bound to […], while none of the antibodies bound to SEMG2 (442-453) control fragment.
Specifically, the preparation of polypeptide antigens and the screening of human natural antibody library were firstly performed. The SEMG2(497-509) polypeptide was synthesized and coupled to BSA and KLH, respectively, and screened in a fully human phage display antibody library. ELISA was used to select clones that bind to antigenic epitopes for preliminary screening. Different unique sequences were obtained after sequencing single colonies, sorted according to affinity sorting, and full-length antibodies were constructed from antigen-binding fragments (Fab) with relatively high affinity. The binding ability and blocking function tests were performed after purification, that is, the effect of the antibody on binding between SEMG2 and CD27 was determined by the ELISA experiment.

[1] = tested on: A375 human melanoma cells; test: Tumor cell killing by activated PBMC, caspase-3/7 apoptosis; type: cell-based; settings: A375, SEMG2-positive, co-culture with activated PBMC 10:1
Method: (§1) To test the above hypothesis, the effects of different epitope-specific antibodies on tumor cell killing by activated PBMC were compared. Specifically, A375 human melanoma and LOVO human colorectal cancer cells highly expressing SEMG2 were seeded in 96-well plate. Human peripheral blood mononuclear cells (PBMC; #70025, Stem Cell) were activated with 100 ng/mL of CD3 antibody, 100 ng/mL, of CD28 antibody, and 1.0 ng/mL of IL2 (#317303; #302913; #589102, BioLegend), respectively, and co-cultured with the above tumor cells at a ratio of 10:1 in presence of fluorescent caspase-3/7 substrate (#4440, Essen Bioscience). After 1.0 hours, cells were observed under fluorescence microscope.
(§2) To verify the above hypothesis, tumor cells with high SEMG2 expression (A375, LOVO) and SEMG2-negative tumor cells (DLD1, NCM460 and NCI-H1975) were selected. Different antibodies (irrelevant mouse IgG antibodies, MM02 or MM05 antibodies) were added during the PBMC killing experiments for the tumor cells.
(§3) To verify the effect of the human antibodies on the function of activated PBMC on tumor cell killing, A375 and LOVO cells were co-cultured with activated PBMC, and H88-93, H88-96, or H88-67 antibody was added at the same time, and the apoptosis ratio of tumor cells were detected.

[2] = tested on: LOVO human colorectal cancer cells; test: as above; type: cell-based; settings: SEMG2-positive, co-culture with activated PBMC 10:1
Method: as §1, §2, §3

DLD1 cells = test: Tumor cell killing by activated PBMC; type: cell-based, human; settings: DLD1, SEMG2-negative
Method: as §1, §2

NCI-H1975 cells = test: Tumor cell killing by activated PBMC; type: cell-based, human; settings: NCI-H1975, SEMG2-negative
Method: as §1, §2

NCM460 cells = test: Tumor cell killing by activated PBMC; type: cell-based, human; settings: NCM460, SEMG2-negative
Method: as §1, §2

Row | Molecule | binding to SEMG2(497-509) epitope (SEMG2(497-509) fragment) | apoptosis tumor cell ratio / killing by activated PBMC [1] | apoptosis tumor cell ratio / killing by activated PBMC [2] | killing by activated PBMC (DLD1 cells) | killing by activated PBMC (NCI-H1975 cells) | killing by activated PBMC (NCM460 cells)
1 | B1 | able to hind to SEMG2(497-509); also recorded: bound | significantly increased the killing | significantly increased the killing | no obvious impact | no obvious impact | no obvious impact
2 | B2 | able to hind to SEMG2(497-509); also recorded: bound | significantly increased the killing | significantly increased the killing | no obvious impact | no obvious impact | no obvious impact
